Measurements reported in patent US20060292672.

Target: T1, rhPTH(1-34)Gly35-OH, P01270
T1 chain: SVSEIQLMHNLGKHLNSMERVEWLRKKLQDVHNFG

B1: peptidylglycine alpha-amidating monooxygenase expressed by cell line UGL 73-26/M (protein)
chain: FRSPLSVFKRFKETTRSFSNECLGTIGPVTPLDASDFALDIRMPGVTPKESDTYFCMSMRLPVDEEAFVIDFKPRASMDTVHHMLLFGCNMPSSTGSYWFCDEGTCTDKANILYAWARNAPPTRLPKGVGFRVGGETGSKYFVLQVHYGDISAFRDNHKDCSGVSVHLTRVPQPLIAGMYLMMSVDTVIPPGEKVVNADISCQYKMYPMHVFAYRVHTHHLGKVVSGYRVRNGQWTLIGRQNPQLPQAFYPVEHPVDVTFGDILAARCVFTGEGRTEATHIGGTSSDEMCNLYIMYYMEAKYALSFMTCTKNVAPDMFRTIPAEANIPIPVKPDMVMMHGHHKEAENKEKSALMQQPKQGEEEVLEQDFHVEEELDWPGVYLLPGQVSGVALDSKNNLVIFHRGDHVWDGNSFDSKFVYQQRGLGPIEEDTILVIDPNNAEILQSSGKNLFYLPHGLSIDTDGNYWVTDVALHQVFKLDPHSKEGPLLILGRSMQPGSDQNHFCQPTDVAVEPSTGAVFVSDGYCNSRIVQFSPSGKFVTQWGEESSGSSPRPGQFSVPHSLALVPHLDQLCVADRENGRIQCFKTDTKEFVREIKHASFGRNVFAISYIPGFLFAVNGKPYFGDQEPVQGFVMNFSSGEIIDVFKPVRKHFDMPHDIVASEDGTVYIGDAHTNTVWKFTLTEKMEHRSV
- overall yield of rhPTH(1-34)-NH2 from enzymatic amidation (preparative reaction followed by CEX and RP purification): yielding 11.8 grams (95% overall yield from amidation) of rhPTH(1-34)-NH2
